For one substance, IC50 results are on record in patent US20160000936A1.

The test addresses murine IL-17 (mouse) (UniProt Q62386). Kind of test: assay not described; table titled 'Source And Binding Information'.

Sequence of murine IL-17 (mouse) (Q62386 26-158 limits assumed): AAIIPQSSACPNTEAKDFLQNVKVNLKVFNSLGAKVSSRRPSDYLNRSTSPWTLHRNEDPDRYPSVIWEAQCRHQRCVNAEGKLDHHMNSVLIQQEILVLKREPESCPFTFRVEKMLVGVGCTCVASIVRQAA

As for anti-murine IL-17 antibody MAB421, the IC50 (commonly the concentration that gives 50% inhibition) was 0.7 nM.
